Measurements: patent publication US20160346375A1 (MCMASTER UNIVERSITY, published 2016)

Target: T1, Cpn0803 (Chlamydia pneumoniae, UniProt Q9Z7A3 1-184)
T1 construct: Prey in an E. coli lysate
T1 sequence: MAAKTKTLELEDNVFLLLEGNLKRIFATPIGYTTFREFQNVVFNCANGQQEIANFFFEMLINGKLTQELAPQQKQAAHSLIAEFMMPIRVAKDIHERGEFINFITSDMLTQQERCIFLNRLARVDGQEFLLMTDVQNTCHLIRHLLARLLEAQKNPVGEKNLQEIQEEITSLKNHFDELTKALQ
Assay: GST pull-down from E. coli lysate, high salt wash

B1: GST-CopB1-255 (other)
chain: MSISSSSGPDNQKNIMSQVLTSTPQGVPQQDKLSGNETKQIQQTRQGKNTEMESDATIAGASGKDKTSSTTKTETAPQQGVAAGKESSESQKAGADTGVSGAAATTASNTATKIAMQTSIEEASKSMESTLESLQSLSAAQMKEVEAVVVAALSGKSSGSAKLETPELPKPGVTPRSEVIEIGLALAKAIQTLGEATKSALSNYASTQAQADQTNKLGLEKQAIKIDKEREEYQEMKAAEQKSKDLEGTMDTVNT
notes: Bait on glutathione-agarose beads; also called recombinant GST-CopB1-255; GST-CopB fragment; not shown: glutathione-S-transferase (GST) fusion tag
Q: Does B1 bind?
A: no binding
